# Laboratory results: PMC4858972, “Structural and Biochemical Characterization of the Early and Late Enzymes in the Lignin β-Aryl Ether Cleavage Pathway from Sphingobium sp. SYK-6” (The Journal of Biological Chemistry, 2016)
# B1: LigL (Sphingobium sp. SYK-6) (protein)
# chain: MDIAGTTAFITGGASGIGFGIAQRLLANGARLVLADIRQDHLDEARQFFEERQQGRNVHTIRLDVSDRAQMAEAARECEAVMGGPDILINNAGIDPSGPFKDATYQDWDYGLAINLMGPINGIMAFTPGMRARGRGGHIVNTASLAGLTPMPSFMAIYATAKAAVITLTETIRDSMAEDNIGVTVLMPGPIKSRIHESGQNRPERFRAGSGLAETEQQLAKRVVADNWMEPTEVGDMIVDAIVHNKLYVSTHGNWRETCEARFQALLDSMPEARPFDFGASLAVPKEEA
# notes: synthetic gene in pCPD, C-terminal V. cholerae MARTX cysteine protease domain (CPD)-His tag self-cleaved after a Leu, expressed in E. coli (NEB Express), biological dimer
# Columns and labels:
# purified protein [1] = substrate: COc1cc([C@H](O)[C@@H](CO)Oc2ccccc2OC)ccc1O; experiment: purified protein; format: biochemical, Sphingobium sp. SYK-6; conditions: 5 mM NAD+, pH 9.0, 30 °C
# purified protein [2] = substrate: COc1cc([C@H](O)[C@H](CO)Oc2ccccc2OC)ccc1O; experiment: purified protein; format: biochemical, Sphingobium sp. SYK-6; conditions: 5 mM NAD+, pH 9.0, 30 °C
protein,measurement,setting,value
B1,Km,purified protein [1],20.3 ± 3.2 µM
same,Vmax,purified protein [1],21.8 µmol/min/mg
same,kcat,purified protein [1],4.9 ± 0.3 s⁻¹
same,kcat/Km,purified protein [1],240000 ± 41000 M⁻¹ s⁻¹
same,Km,purified protein [2],10.9 ± 0.8 µM
same,Vmax,purified protein [2],33.7 µmol/min/mg
same,kcat,purified protein [2],7.5 ± 0.1 s⁻¹
same,kcat/Km,purified protein [2],688000 ± 53000 M⁻¹ s⁻¹
